Data taken from publication PMC11051896.

Tested on: T1, CcpA (Lactococcus lactis N8), ORF:ea67f8fe
T1 sequence: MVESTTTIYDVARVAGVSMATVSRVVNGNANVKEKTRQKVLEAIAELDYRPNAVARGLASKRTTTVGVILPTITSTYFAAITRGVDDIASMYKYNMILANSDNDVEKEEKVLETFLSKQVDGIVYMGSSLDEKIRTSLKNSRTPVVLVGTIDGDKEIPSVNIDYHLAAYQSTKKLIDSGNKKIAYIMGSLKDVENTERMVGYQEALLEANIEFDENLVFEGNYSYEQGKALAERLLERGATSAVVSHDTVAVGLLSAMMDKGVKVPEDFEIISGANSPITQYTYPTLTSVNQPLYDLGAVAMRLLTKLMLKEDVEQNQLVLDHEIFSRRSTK
Assay: MST
Conditions: MST: Cy5-DNA 375 nM stock (10 uL per tube), CcpA from 15 uM in 16 two-fold dilutions; assay buffer, salt, pH and temperature not stated (protein purified in …)

| Sequence | binding | Kd [nM] |
| --- | --- | --- |
| AGCCAGTGGCGATAAGTACGATAAAATATTTAAAAGTCTATATATACCAAGGAAGAAAACTCTTTAAATTTTTGTAAATTATTAGAAATAATGATAG (double strand) [N8-2-cre] | no binding | – |
| AGCCAGTGGCGATAAGTACGATAAAATATTTAAAAGTCTATATATACCAAGGAAGAAAACGCTTTAAATTTTTGTAAATTATTAGAAATAATGATAG (double strand) [N8-1-cre] | – | 44 |
